For 8 proteins, pKa results are on record in publication PMC6906691.

Common to all, as to assay: chemical modification
Common to all, as to settings: 37 °C, added salt not given, universal pH buffer: 5 mM CHES, 5 mM HEPES, 5 mM MES, degassed and charged with nitrogen

The target in data set [1] is Cys3 (position 3, ---RRCPYSDA).
The target of data set [2] is Cys3 (position 3, ---KKCPYSAD).
Data set [3] has as its target Cys3 (position 3, ---KKCPYSAA).
The target of data set [4] is Cys3 (position 3, ---GGCPYADA).
Data set [5] deals with Cys3 (position 3, ---YGCAAAAA).
In data set [6] the target is Cys3 (position 3, ---KKCPYSDA).
In data set [7] the target is Cys3 (position 3, ---YGCAAADA).
Data set [8] addresses Cys3 (position 3, ---YGCPAADA).
Setting [9] is: free peptide, 2-4Zn(II) absent. Peptide-a of this series, which lacks Cys, is described as a random coil without zinc complex.
[10] abbreviates: peptide (4 µM) in binding complex with the tetranuclear zinc complex 2-4Zn(II) (14 µM), alpha-helical conformation induced by the complex.

B1: peptide-h (synthetic construct) (peptide)
chain: RRCPYSDAAADAAADAAAD
The term pKa denotes the negative logarithm of the acid dissociation constant. Regarding B1, the pKa in data set [1] (setting [9]) came out at 8.02; in data set [1] (setting [10]), 7.18.

B2: peptide-j (synthetic construct) (peptide)
chain: KKCPYSADAAADAAADAAAD
Consider B2, for which the pKa stood at 7.94 in data set [2] (setting [9]) and 7.08 in data set [2] (setting [10]).

B3: peptide-k (helixD2-tag peptide) (synthetic construct) (peptide)
chain: KKCPYSAADAAADAAADAAAD
Consider B3, for which the pKa came to 7.95 in data set [3] (setting [9]) and 7.14 in data set [3] (setting [10]).

B4: peptide-e (Cys-Pro-Tyr-Ala glutaredoxin-mimicking tag peptide) (synthetic construct) (peptide)
chain: GGCPYADAAADAAADAAAD
Consider B4, for which the pKa in data set [4] (setting [9]) was 8.48; in data set [4] (setting [10]) it was 7.46.

B5: peptide-i (D4-tag peptide) (synthetic construct) (peptide)
chain: YGCAAAAAADDDDGDDDD
Consider B5, for which the pKa is listed as 8.96 in data set [5] (setting [9]) and 8.22 in data set [5] (setting [10]).

B6: peptide-g (synthetic construct) (peptide)
chain: KKCPYSDAAADAAADAAAD
For B6, the pKa in data set [6] (setting [9]) is listed as 8.04; in data set [6] (setting [10]), 7.13.

B7: peptide-d (Asp-rich alpha-helical tag peptide) (synthetic construct) (peptide)
chain: YGCAAADAAADAAADAAAD
Take B7: the pKa turned out to be 8.89 in data set [7] (setting [9]) and 7.94 in data set [7] (setting [10]).

B8: peptide-f (synthetic construct) (peptide)
chain: YGCPAADAAADAAADAAAD
For the protein B8, the results for the pKa in data set [8] (setting [9]) and in data set [8] (setting [10]) were 8.93 and 7.80, respectively.
